From the supplement of paper PMC7877785
± gives the uncertainty stated by the source.

Assay: self-splicing fitness, log relative to wild type (ln ratio); higher = more splicing; Tetrahymena group I intron in knt gene, E. coli kanamycin selection, DiMSum; sequences stand for … in CUCUCU…GGAGGGAAAAGUUAUCAGGCAUGCACCUGGUAGCUAGUCUUUAAACCAAUAGAUUGCAUCGGUUUAAAAGGCAAGACCGUCAAAUUGCGGGAAAGGGGUCAACAGCCGUUCAGUACCAAGUCUCAGGGGAAACUUUGAGAUGGCCUUGCAAAGGGUAUGGUAAUAAGCUGACGGACAUGGUCCUAACCACGCAGCCAAGUCCUAAGUCAACAGAUCUUCUGUUGAUAUGGAUGCAGUUCACAGACUAAAUGUCGGUCGGGGAAGAUGUAUUCUUCUCAUAAGAUAUAGUCGGACCUCUCCUUAAUGGGAGCUAGCGGAUGAAGUGAUGCAACACUGGAGCCGCUGGGAACUAAUUUGUAUGCGAAAGUAUAUUGAUUAGUUUUGGAGUACUCGUGGUCG
Method in brief: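 Six replicate transformations of E. coli BL21(DE3) with a pET-22b(+) library were grown overnight at 37°C or 30°C. The library randomised all eight P1ex-region intron nucleotides, the intron lying in the knt kanamycin-resistance gene, and plates were LB agar with or without 25 μg/mL kanamycin plus 100 μg/mL carbenicillin, 50 μM IPTG and 0.2% rhamnose. Pooled colonies were amplicon-sequenced on an Illumina HiSeq 2500, and fitness is the DiMSum error-weighted combination of wild-type-normalised replicate fold changes, kanamycin versus none.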

CAUGAGCAAUAUUACGAGAU
self-splicing fitness (ln) (30 °C): -4.03 ± 0.23 | self-splicing fitness (ln) (37 °C): -1.82 ± 0.28

GGAGAGCAAUAUUACGAGCG
self-splicing fitness (ln) (37 °C): -1.86 ± 0.37

GCGCAGCAAUAUUACGCACA
self-splicing fitness (ln) (30 °C): -1.5 ± 0.12 | self-splicing fitness (ln) (37 °C): -0.062 ± 0.11

CUACAGCAAUAUUACGGGGA
self-splicing fitness (ln) (30 °C): -3.52 ± 0.26 | self-splicing fitness (ln) (37 °C): -1.79 ± 0.16

AGGAAGCAAUAUUACGGUUU
self-splicing fitness (ln) (30 °C): -2.13 ± 0.085 | self-splicing fitness (ln) (37 °C): -0.557 ± 0.1

GAAAAGCAAUAUUACGAUUC
self-splicing fitness (ln) (30 °C): -2.34 ± 0.17 | self-splicing fitness (ln) (37 °C): -1.42 ± 0.15

GGGAAGCAAUAUUACGCCGG
self-splicing fitness (ln) (30 °C): -3.75 ± 0.29

ACCGAGCAAUAUUACGACUC
self-splicing fitness (ln) (30 °C): -1.44 ± 0.29 | self-splicing fitness (ln) (37 °C): -1.59 ± 0.22

AAAAAGCAAUAUUACGUCCG
self-splicing fitness (ln) (30 °C): -1.05 ± 0.11 | self-splicing fitness (ln) (37 °C): -0.195 ± 0.13

CGGUAGCAAUAUUACGAGGG
self-splicing fitness (ln) (30 °C): -3.72 ± 0.36 | self-splicing fitness (ln) (37 °C): -2.96 ± 0.25

UACCAGCAAUAUUACGACGA
self-splicing fitness (ln) (30 °C): -0.586 ± 0.086 | self-splicing fitness (ln) (37 °C): 0.837 ± 0.11

CAGCAGCAAUAUUACGGUUU
self-splicing fitness (ln) (30 °C): -0.8 ± 0.062 | self-splicing fitness (ln) (37 °C): -0.225 ± 0.084

GAUCAGCAAUAUUACGAUAC
self-splicing fitness (ln) (30 °C): -1.08 ± 0.078 | self-splicing fitness (ln) (37 °C): -0.733 ± 0.12

GAUCAGCAAUAUUACGUGGG
self-splicing fitness (ln) (30 °C): -3.21 ± 0.13 | self-splicing fitness (ln) (37 °C): -1.7 ± 0.11

CUGGAGCAAUAUUACGUUCG
self-splicing fitness (ln) (30 °C): -4.29 ± 0.3 | self-splicing fitness (ln) (37 °C): -1.77 ± 0.19

UCAAAGCAAUAUUACGAGGC
self-splicing fitness (ln) (37 °C): -2.69 ± 0.3

CUGAAGCAAUAUUACGUUUA
self-splicing fitness (ln) (30 °C): -3.97 ± 0.24

CGCGAGCAAUAUUACGAAUU
self-splicing fitness (ln) (30 °C): -3.16 ± 0.27 | self-splicing fitness (ln) (37 °C): -2.03 ± 0.21

GUUAAGCAAUAUUACGUUAC
self-splicing fitness (ln) (30 °C): -2.36 ± 0.19 | self-splicing fitness (ln) (37 °C): -1.33 ± 0.15

GAUUAGCAAUAUUACGUAUG
self-splicing fitness (ln) (30 °C): -1.75 ± 0.065 | self-splicing fitness (ln) (37 °C): -1.33 ± 0.087

CUCAAGCAAUAUUACGAUCG
self-splicing fitness (ln) (30 °C): -1.26 ± 0.1 | self-splicing fitness (ln) (37 °C): -0.0967 ± 0.13

AACUAGCAAUAUUACGCCAA
self-splicing fitness (ln) (30 °C): -2.83 ± 0.21 | self-splicing fitness (ln) (37 °C): -1.63 ± 0.16

CAUCAGCAAUAUUACGCCUC
self-splicing fitness (ln) (37 °C): -1.57 ± 0.24

UGCGAGCAAUAUUACGAACU
self-splicing fitness (ln) (30 °C): -1.88 ± 0.11 | self-splicing fitness (ln) (37 °C): 0.0543 ± 0.09

GGGAAGCAAUAUUACGCCUG
self-splicing fitness (ln) (30 °C): -0.0824 ± 0.11 | self-splicing fitness (ln) (37 °C): -0.324 ± 0.16

GAUUAGCAAUAUUACGAAAG
self-splicing fitness (ln) (30 °C): -2.38 ± 0.25 | self-splicing fitness (ln) (37 °C): -0.574 ± 0.23

UUGGAGCAAUAUUACGGCCA
self-splicing fitness (ln) (30 °C): -2.23 ± 0.19 | self-splicing fitness (ln) (37 °C): -0.299 ± 0.15

GUUCAGCAAUAUUACGCGGG
self-splicing fitness (ln) (30 °C): -2.32 ± 0.14 | self-splicing fitness (ln) (37 °C): -0.613 ± 0.1

CGAUAGCAAUAUUACGGCAC
self-splicing fitness (ln) (30 °C): -2.47 ± 0.33 | self-splicing fitness (ln) (37 °C): -1.49 ± 0.31

CCAUAGCAAUAUUACGGGUU
self-splicing fitness (ln) (30 °C): -3.69 ± 0.17 | self-splicing fitness (ln) (37 °C): -3.79 ± 0.34

GUCUAGCAAUAUUACGAUCU
self-splicing fitness (ln) (30 °C): -1.57 ± 0.12 | self-splicing fitness (ln) (37 °C): -0.315 ± 0.14

GACAAGCAAUAUUACGCCGA
self-splicing fitness (ln) (30 °C): -1.19 ± 0.12 | self-splicing fitness (ln) (37 °C): -0.179 ± 0.14

GAUUAGCAAUAUUACGAAGG
self-splicing fitness (ln) (30 °C): -3.53 ± 0.43 | self-splicing fitness (ln) (37 °C): -1.8 ± 0.35

CGAAAGCAAUAUUACGGUUG
self-splicing fitness (ln) (30 °C): -0.623 ± 0.057 | self-splicing fitness (ln) (37 °C): -0.494 ± 0.073

CCUAAGCAAUAUUACGAGAG
self-splicing fitness (ln) (30 °C): -2.31 ± 0.17 | self-splicing fitness (ln) (37 °C): -1.23 ± 0.13
